{"source": "paper PMC13226697", "about": "“Stress-induced OMA1-mediated cleavage of AIFM1 suppresses cell growth by controlling mitochondrial OXPHOS activity” (The EMBO Journal, 2026)", "proteins": {"B1": {"name": "AIFM1^TCS/TEV, soluble product of AIFM1^TCS cleaved by IMS-TEV protease (domain or fragment, murine)", "chain": "GVMGLGLSPEEKQRRAIASATEGGSVPQIRAPSHVPFLLIGGGTAAFAAARSIRARDPGARVLIVSEDPELPYMRPPLSKELWFSDDPNVTKTLQFRQWNGKERSIYFQPPSFYVSAQDLPNIENGGVAVLTGKKVVHLDVRGNMVKLNDGSQITFEKCLIATGGTPRSLSAIDRAGAEVKSRTTLFRKIGDFRALEKISREVKSITVIGGGFLGSELACALGRKSQASGIEVIQLFPEKGNMGKILPQYLSNWTMEKVKREGVKVMPNAIVQSVGVSGGRLLIKLKDGRKVETDHIVTAVGLEPNVELAKTGGLEIDSDFGGFRVNAELQARSNIWVAGDAACFYDIKLGRRRVEHHDHAVVSGRLAGENMTGAAKPYWHQSMFWSDLGPDVGYEAIGLVDSSLPTVGVFAKATAQDNPKSATEQSGTGIRSESETESEASEITIPPSAPAVPQVPVEGEDYGKGVIFYLRDKVVVGIVLWNVFNRMPIARKIIKDGEQHEDLNEVAKLFNIHED", "notes": "additional glycine residue at the N-terminus, left from the TEV site ENLYFQG after TEV processing; Murine AIFM1 from V98, the residue after the replaced R97, to the end of A.A.1-612; Expected molecular weight ~60 kDa including the Myc tag; The dimer is an estimate from CN-PAGE; also called membrane-dislocated AIFM1 variant; soluble AIFM1^TCS/TEV; not shown: 3x Myc, C-terminal, kept"}}, "target": "the molecule itself", "test": "native gel or EMSA; CN-PAGE of mitochondria solubilised in 0.5% digitonin, with or without FCCP, immunoblot with AIFM1 antibodies"}
{"protein": "B1", "values": [{"measurement": "stoichiometry N", "value": 2}]}
